Results as given in the supplement of paper PMC10126150.
± gives the standard deviation of the averaged measurements.

Test system: ATP
Experiment: switch fluorescence ratio, 500 uM ATP over buffer (Cy3 cluster intensity, sum of 5 cycles each) (fold (ratio)); higher = stronger signal-on switching upon ATP binding; sequences stand for … in TCGTCGGCAGCGTCAGATGTGTATAAGAGACAGTTTTTTTTTTTTTTTTTTTTTTTTT…TC
Conditions: aptamer strand: ATP DNA aptamer (quencher-CACCTGGGGGAGTATTGCGGAGGAAGG + anchor), 100 nM annealed; ATP concentration: 500 uM
In short: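 Cy3-labelled switching-strand clusters on a modified Illumina MiSeq flow-cell were annealed to 100 nM quencher-labelled ATP aptamer, imaged in selection buffer, then imaged after 15 min with 500 uM ATP at 22 °C. Five buffer/ATP cycles ran, with NaOH stripping and re-annealing between them. The fluorescence ratio is summed target-cycle over summed buffer-cycle Cy3 intensity per cluster, averaged per switch-domain sequence. Clusters outside 100-1000 RFU were excluded.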
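Further: ATP exposure 15 min at 22 °C before imaging.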

GGGCGGGGGT gave a switch fluorescence ratio of 1.02 ± 0.019.
GGGCGGTTTG gave a switch fluorescence ratio of 0.971 ± 0.046.
GGGCGTACGG was tested, and the switch fluorescence ratio was 1.06 ± 0.045.
GGGCGTTTCG gave a switch fluorescence ratio of 1.005 ± 0.0089.
Sequence GGGCTAAGGG has a switch fluorescence ratio of 0.985 ± 0.056.
With GGGCTAGGCA the switch fluorescence ratio was 1.02 ± 0.014.
In the case of GGGCTAGGGG, the switch fluorescence ratio is reported as 0.994 ± 0.029.
For GGGCTAGGTT, the switch fluorescence ratio was 0.986 ± 0.031.
GGGCTAGTAC gave a switch fluorescence ratio of 1.13 ± 0.017.
For GGGCTATCAT, the switch fluorescence ratio was 0.965 ± 0.012.
GGGCTATTAT was tested, and the switch fluorescence ratio was 1.02 ± 0.081.
GGGCTCAGGC was tested, and the switch fluorescence ratio was 0.988 ± 0.0094.
GGGCTGCCGA was tested, and the switch fluorescence ratio was 1.03 ± 0.021.
GGGCTGTCTG was tested, and the switch fluorescence ratio was 0.9631 ± 0.0076.
In the case of GGGCTTCAGA, the switch fluorescence ratio is reported as 0.987 ± 0.023.
In the case of GGGCTTCTTG, the switch fluorescence ratio is reported as 0.962 ± 0.021.
GGGCTTCTTT was tested, and the switch fluorescence ratio was 0.996 ± 0.034.
In the case of GGGCTTTATA, the switch fluorescence ratio is reported as 1.02 ± 0.014.
GGGGAAAAAA was tested, and the switch fluorescence ratio was 1.06 ± 0.14.
GGGGAAAAAG showed a switch fluorescence ratio of 1.01 ± 0.028.
GGGGAAAAGA gave a switch fluorescence ratio of 1 ± 0.025.
GGGGAAAGAA gave a switch fluorescence ratio of 1.02 ± 0.064.
For GGGGAACACT, the switch fluorescence ratio was 1.01 ± 0.022.
Sequence GGGGAAGACT has a switch fluorescence ratio of 0.989 ± 0.016.
Sequence GGGGAAGATT has a switch fluorescence ratio of 0.986 ± 0.03.
For GGGGAAGGT, the switch fluorescence ratio was 1.04 ± 0.019.
GGGGAAGGTT was tested, and the switch fluorescence ratio was 0.991 ± 0.037.
GGGGAATCAG gave a switch fluorescence ratio of 1.03 ± 0.017.
In the case of GGGGAATGCT, the switch fluorescence ratio is reported as 1.01 ± 0.02.
Sequence GGGGAATGTA has a switch fluorescence ratio of 0.971 ± 0.022.
GGGGAATTAA gave a switch fluorescence ratio of 0.99 ± 0.018.
In the case of GGGGAATTCA, the switch fluorescence ratio is reported as 1.04 ± 0.046.
GGGGAATTCG showed a switch fluorescence ratio of 1.02 ± 0.043.
GGGGAATTTT was tested, and the switch fluorescence ratio was 1.01 ± 0.037.
GGGGACAGGG was tested, and the switch fluorescence ratio was 1.01 ± 0.051.
Sequence GGGGACAGGT has a switch fluorescence ratio of 1.03 ± 0.0057.
GGGGACCGGG gave a switch fluorescence ratio of 1.07 ± 0.094.
For GGGGACCTAT, the switch fluorescence ratio was 1.02 ± 0.018.
Sequence GGGGACTACT has a switch fluorescence ratio of 1 ± 0.025.
Sequence GGGGACTGAT has a switch fluorescence ratio of 0.995 ± 0.022.
In the case of GGGGACTGGT, the switch fluorescence ratio is reported as 1 ± 0.043.
GGGGACTTGC was tested, and the switch fluorescence ratio was 0.9913 ± 0.0045.
For GGGGAGCAGC, the switch fluorescence ratio was 1.11 ± 0.22.
In the case of GGGGAGCATT, the switch fluorescence ratio is reported as 1.04 ± 0.013.
For GGGGAGGGAT, the switch fluorescence ratio was 0.996 ± 0.017.
Sequence GGGGAGGGCT has a switch fluorescence ratio of 0.964 ± 0.033.
GGGGAGGGGC was tested, and the switch fluorescence ratio was 1.01 ± 0.065.
For GGGGAGGTCT, the switch fluorescence ratio was 1.01 ± 0.03.
In the case of GGGGAGGTTC, the switch fluorescence ratio is reported as 1 ± 0.031.
GGGGAGTGTT showed a switch fluorescence ratio of 0.998 ± 0.039.
GGGGAGTTAG gave a switch fluorescence ratio of 1.01 ± 0.013.
GGGGATAAGT was tested, and the switch fluorescence ratio was 1.04 ± 0.054.
With GGGGATACAG the switch fluorescence ratio was 0.995 ± 0.012.
For GGGGATATAT, the switch fluorescence ratio was 1 ± 0.035.
GGGGATATTT gave a switch fluorescence ratio of 1 ± 0.014.
In the case of GGGGATCGCG, the switch fluorescence ratio is reported as 0.986 ± 0.033.
GGGGATGAGA gave a switch fluorescence ratio of 0.986 ± 0.01.
GGGGATGGTA gave a switch fluorescence ratio of 0.978 ± 0.025.
GGGGATGTAC showed a switch fluorescence ratio of 1.07 ± 0.077.
For GGGGATGTAG, the switch fluorescence ratio was 0.979 ± 0.026.
GGGGATGTTA showed a switch fluorescence ratio of 1.01 ± 0.026.
GGGGATGTTT gave a switch fluorescence ratio of 0.958 ± 0.039.
With GGGGATTGAG the switch fluorescence ratio was 0.973 ± 0.042.
Sequence GGGGATTGTT has a switch fluorescence ratio of 1 ± 0.033.
In the case of GGGGATTTCA, the switch fluorescence ratio is reported as 0.989 ± 0.024.
Work on GGGGATTTGT yielded a switch fluorescence ratio of 0.994 ± 0.034.
Sequence GGGGCAAAGA has a switch fluorescence ratio of 1.02 ± 0.027.
In the case of GGGGCAAGCG, the switch fluorescence ratio is reported as 1.04 ± 0.028.
GGGGCAGAAA showed a switch fluorescence ratio of 1.26 ± 0.45.
Work on GGGGCAGGCG yielded a switch fluorescence ratio of 1.07 ± 0.35.
In the case of GGGGCATAGT, the switch fluorescence ratio is reported as 0.991 ± 0.02.
GGGGCATGGC showed a switch fluorescence ratio of 1.02 ± 0.028.
Sequence GGGGCATTAT has a switch fluorescence ratio of 1.06 ± 0.074.
GGGGCCAATT showed a switch fluorescence ratio of 1.01 ± 0.032.
Work on GGGGCCGGGA yielded a switch fluorescence ratio of 1.12 ± 0.19.
For GGGGCCGGTC, the switch fluorescence ratio was 1 ± 0.016.
For GGGGCGAGTC, the switch fluorescence ratio was 1.01 ± 0.1.
GGGGCGGACG gave a switch fluorescence ratio of 0.995 ± 0.047.
Sequence GGGGCGGGCA has a switch fluorescence ratio of 1.03 ± 0.043.
GGGGCGGGTG was tested, and the switch fluorescence ratio was 0.993 ± 0.039.
GGGGCGGGTT showed a switch fluorescence ratio of 1.02 ± 0.04.
Sequence GGGGCGGTGC has a switch fluorescence ratio of 1.03 ± 0.023.
GGGGCGGTGT gave a switch fluorescence ratio of 1.32 ± 0.54.
Work on GGGGCGTGTA yielded a switch fluorescence ratio of 0.977 ± 0.029.
Work on GGGGCTAGAG yielded a switch fluorescence ratio of 1.4 ± 0.77.
GGGGCTAGGG showed a switch fluorescence ratio of 1 ± 0.032.
GGGGCTCTAA was tested, and the switch fluorescence ratio was 1.01 ± 0.038.
Work on GGGGCTGAGT yielded a switch fluorescence ratio of 0.954 ± 0.039.
GGGGCTGCGG showed a switch fluorescence ratio of 0.973 ± 0.052.
GGGGCTGGGG showed a switch fluorescence ratio of 1.01 ± 0.034.
With GGGGCTGGGT the switch fluorescence ratio was 1.02 ± 0.031.
With GGGGCTGTCT the switch fluorescence ratio was 1 ± 0.071.
GGGGCTTGTG was tested, and the switch fluorescence ratio was 1.01 ± 0.028.
Work on GGGGCTTTTC yielded a switch fluorescence ratio of 1.01 ± 0.027.
GGGGGAACGT gave a switch fluorescence ratio of 1.05 ± 0.037.
With GGGGGAAGTA the switch fluorescence ratio was 1.041 ± 0.0027.
With GGGGGAATTA the switch fluorescence ratio was 1.01 ± 0.029.
GGGGGACAGG gave a switch fluorescence ratio of 1.05 ± 0.072.
For GGGGGACGGT, the switch fluorescence ratio was 1.02 ± 0.017.
GGGGGAGAAA showed a switch fluorescence ratio of 1.02 ± 0.033.
GGGGGAGAAC gave a switch fluorescence ratio of 1.026 ± 0.0019.
For GGGGGAGAGG, the switch fluorescence ratio was 0.99 ± 0.029.
For GGGGGAGCAG, the switch fluorescence ratio was 0.9812 ± 0.0084.
In the case of GGGGGAGCGT, the switch fluorescence ratio is reported as 1 ± 0.03.
In the case of GGGGGAGGGT, the switch fluorescence ratio is reported as 0.997 ± 0.036.
GGGGGAGTAC was tested, and the switch fluorescence ratio was 1.025 ± 0.0084.
In the case of GGGGGAGTAG, the switch fluorescence ratio is reported as 0.983 ± 0.016.
Work on GGGGGATACT yielded a switch fluorescence ratio of 1.04 ± 0.037.
Sequence GGGGGATATT has a switch fluorescence ratio of 1.01 ± 0.037.
For GGGGGATCGC, the switch fluorescence ratio was 1.01 ± 0.025.
GGGGGATCGT gave a switch fluorescence ratio of 1.02 ± 0.035.
With GGGGGATGAA the switch fluorescence ratio was 0.991 ± 0.025.
GGGGGATT gave a switch fluorescence ratio of 0.996 ± 0.02.
For GGGGGATTAG, the switch fluorescence ratio was 0.992 ± 0.022.
In the case of GGGGGATTAT, the switch fluorescence ratio is reported as 0.992 ± 0.044.
GGGGGATTCT gave a switch fluorescence ratio of 1.02 ± 0.011.
GGGGGATTGG showed a switch fluorescence ratio of 0.999 ± 0.032.
Work on GGGGGCAGGT yielded a switch fluorescence ratio of 1.03 ± 0.039.
Work on GGGGGCATCT yielded a switch fluorescence ratio of 1 ± 0.019.
GGGGGCCACG showed a switch fluorescence ratio of 0.984 ± 0.022.
GGGGGCCCGT gave a switch fluorescence ratio of 1.46 ± 0.69.
GGGGGCCCTC was tested, and the switch fluorescence ratio was 0.985 ± 0.01.
Work on GGGGGCCCTG yielded a switch fluorescence ratio of 0.98993 ± 0.0009.
With GGGGGCGATT the switch fluorescence ratio was 0.987 ± 0.017.
GGGGGCGGCG was tested, and the switch fluorescence ratio was 1 ± 0.051.
In the case of GGGGGCGTGG, the switch fluorescence ratio is reported as 1 ± 0.043.
GGGGGCGTTG was tested, and the switch fluorescence ratio was 1.01 ± 0.02.
In the case of GGGGGCTTGA, the switch fluorescence ratio is reported as 0.954 ± 0.022.
Sequence GGGGGGAAAG has a switch fluorescence ratio of 0.98 ± 0.029.
GGGGGGAAGA showed a switch fluorescence ratio of 0.994 ± 0.025.
For GGGGGGAATC, the switch fluorescence ratio was 1.01 ± 0.052.
With GGGGGGACAA the switch fluorescence ratio was 1 ± 0.013.
In the case of GGGGGGACCG, the switch fluorescence ratio is reported as 0.987 ± 0.032.
Work on GGGGGGACGA yielded a switch fluorescence ratio of 1.01 ± 0.033.
GGGGGGAGGC was tested, and the switch fluorescence ratio was 0.995 ± 0.028.
GGGGGGCAAG showed a switch fluorescence ratio of 0.9858 ± 0.009.
GGGGGGCAAT was tested, and the switch fluorescence ratio was 1.2 ± 0.099.
In the case of GGGGGGCAGG, the switch fluorescence ratio is reported as 1.03 ± 0.039.
GGGGGGCCGC gave a switch fluorescence ratio of 1.03 ± 0.081.
Sequence GGGGGGCCTT has a switch fluorescence ratio of 1 ± 0.04.
GGGGGGCGAT gave a switch fluorescence ratio of 1.03 ± 0.049.
With GGGGGGCTGG the switch fluorescence ratio was 0.979 ± 0.025.
In the case of GGGGGGGAAC, the switch fluorescence ratio is reported as 1 ± 0.04.
For GGGGGGGACT, the switch fluorescence ratio was 1 ± 0.034.
With GGGGGGGATT the switch fluorescence ratio was 1.01 ± 0.025.
In the case of GGGGGGGCGA, the switch fluorescence ratio is reported as 0.987 ± 0.041.
GGGGGGGGGC was tested, and the switch fluorescence ratio was 1.03 ± 0.098.
With GGGGGGGTAC the switch fluorescence ratio was 1.23 ± 0.62.
In the case of GGGGGGGTAG, the switch fluorescence ratio is reported as 1 ± 0.021.
GGGGGGGTTC was tested, and the switch fluorescence ratio was 1 ± 0.028.
GGGGGGTACT was tested, and the switch fluorescence ratio was 0.994 ± 0.033.
For GGGGGGTATC, the switch fluorescence ratio was 1.01 ± 0.03.
GGGGGGTATG gave a switch fluorescence ratio of 0.982 ± 0.022.
